Results published in US6613536B1, “Synthetic peptides and pharmaceutical compositions comprising them for the treatment of systemic lupus erythematosus” (Yeda Research and Development Co. Ltd., priority 1995, dated 2003).
Entries after “also recorded” stand apart in the source; their conditions may differ.

Legend:
[1] = biological target: T1, MHC class II products on splenic antigen-presenting cells (APC) (Mus musculus, UniProt P06345+P14437); assay: Inhibition of peptide binding to APC by anti-Ia mAb; design: concentration or dose not given beside the values; settings: SJL, H-2 s
T1 construct: Splenic adherent cells (10^6/100 μl/tube) isolated from BALB/c, SJL, C3H.SW or C57BL/6 mice; from tissue; host or cells: mouse spleen adherent cells (BALB/c, SJL, C3H.SW, C57BL/6)
T1 sequence (P14437 1-233): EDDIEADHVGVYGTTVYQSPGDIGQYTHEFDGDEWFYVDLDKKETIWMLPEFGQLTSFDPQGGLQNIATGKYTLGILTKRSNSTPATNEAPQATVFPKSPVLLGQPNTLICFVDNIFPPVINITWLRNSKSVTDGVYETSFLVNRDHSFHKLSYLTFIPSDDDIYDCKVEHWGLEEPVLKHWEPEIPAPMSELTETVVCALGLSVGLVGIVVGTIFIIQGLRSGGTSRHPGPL
T1 sequence (P06345 28-263): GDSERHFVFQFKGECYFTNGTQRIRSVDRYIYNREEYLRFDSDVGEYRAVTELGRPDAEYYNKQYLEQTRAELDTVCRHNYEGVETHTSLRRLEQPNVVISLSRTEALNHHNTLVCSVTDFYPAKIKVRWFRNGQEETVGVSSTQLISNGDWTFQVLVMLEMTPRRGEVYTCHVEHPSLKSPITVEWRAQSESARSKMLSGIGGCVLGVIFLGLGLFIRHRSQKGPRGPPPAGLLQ
Experimental: Spleen cells suspended in RPMI 1640 medium containing 10% FCS were incubated in Petri dishes for 60 min at 37° C. Thereafter, non-adherent cells were removed, the plates were washed, and the adherent cells were collected from the plates using a rubber policeman (Costar, Mass., USA). These cells (1×10^6/100 μl/tube) were incubated with the biotinylated peptides in PBS containing 0.1% BSA (high purity grade, Amresco, Ohio, USA) for 16 hr at 37° C., followed by incubation with phycoerythrin (PE)-streptavidin (Jackson ImmunoResearch) for 30 min at 4° C. Thereafter the samples were incubated with biotinylated anti-streptavidin (1:60, Vector Laboratories, Burlingame, Calif.) and for an additional period with PE-streptavidin, all for 30 min at 4° C. The cells were washed twice with cold PBS/BSA solution after each incubation. Thereafter, cells were analyzed by flow cytometry using the FACSort cytometer and CELLQuest software (Beckton-Dickinson, Mountain View, Calif.). […]
Binding of the CDR-based peptides Ia and IIIa to APC was determined as described in Materials and Methods herein and the results are shown in Table 2. […] The results are shown in Table 3: Inhibition of binding was specific and ranged from 60% to 100%.

[2] = system: BALB/c mice; assay: Neonatal tolerization of BALB/c mice, then autoantibody titers after immunization; type: in vivo, mouse; settings: BALB/c neonates, 100 μg i.p. twice; immunized 6-7 weeks later with peptide Ia or mAb 5G12
Experimental: In order to either prevent induction of experimental SLE or to cure mice afflicted with the disease, the following procedures were used: (i) Newborn mice were tolerized with a peptide of the invention (100 μg of the peptide in PBS, intraperitoneally at 24 and 72 hours after birth). Six weeks later, the mice were immunized with the pathogenic autoantibody, e.g. 5G12 (16/6 Id+) and examined for disease manifestations; (ii) A first group of adult mice was injected with various concentrations of the peptides before disease induction with the pathogenic autoantibody or pathogenic T cell line; another group was injected with the peptides to be tested for their therapeutic effect six weeks following immunization at the peak of the serological response; and a further group was treated at 4-6 months post-immunization after the establishment of the overt SLE disease. The number of injections with the peptides was determined based on their effect on the disease induction and progression. The effect of the peptide treatment on T cell proliferation, on the autoantibody production and on the disease manifestations was then evaluated.
In order to further elucidate the role of the peptides in SLE, peptide Ia was utilized for the induction of tolerance in BALB/c mice. Newborn mice were injected twice (at day 1 and 3) with either peptide Ia or a control peptide. […]

[3] = system: T cell line specific to peptide IIIa of SJL origin; assay: Proliferation and cytokine secretion of peptide IIIa-specific T cell line; type: cell-based, mouse
Experimental: A further test which can be conducted is to test for the ability of the analogs to inhibit cytokine secretion by the T cell line or by T lymphocytes oh lymph nodes of mice that are high responders to SLE-inducing autoantibodies. The cytokines are detected as follows: IL-1 activity is assessed either by ELISA using a pair of capture and detecting antibodies (as described below for IL-4, IL-6, IL-10) or using the LBRM-33(1A5) assay (Conlon, 1983) in which 1A5 cells are stimulated in the presence of phytohemagglutinin (PHA), with either supernatants or recombinant IL-1 at various concentrations to secrete IL-2. […] Stimulation of the CTLL line by IL-2 is measured after 24 hr by incorporation of ^3[H]-thymidine. IL-2 is directly detected using the IL-2 dependent CTLL line or by ELISA. Levels of IL-4, IL-6, IL-10, INFγ and TNFα in the supernatants are determined by ELISA using antibodies to the various cytokines (Phamingen, San Diego, Calif., USA) according to the manufacturer's instructions.
T cell lines and clones specific to the 16/6 Id were established from immunized lymph node cells as previously described (Axelrod and Mozes, 1986). […] At the end of 48 hours incubation, 0.5 μCi of ^3H-thymidine were added for an additional 18 hours, after which cells were harvested and radioactivity was counted. […]

## TGYYMQWVKQSPEKSLEWIG [peptide Ia]
[1]; mAb anti I-A^d (MKD6)
  % inhibition of binding to APC: 0%
[1]; mAb anti I-A^s (10.3.6.2)
  % inhibition of binding to APC: 100%
[2]
  anti-DNA and anti-NE autoantibody titers after neonatal tolerization: did not produce significant titers of antibodies to either DNA or nuclear extract antigens; also recorded: produced lower levels of anti-DNA and anti-NE antibodies

## YYYCARFLWEPYAMDYWGQGS (YYCARFLWEPYAMDYWGQGS) [peptide IIIa, based on the CDR3 region of the VH chain of mAb 5G12]
[1]; mAb anti I-A^d (MKD6)
  % inhibition of binding to APC: 0%
[1]; mAb anti I-A^s (10.3.6.2)
  % inhibition of binding to APC: 92.8%
[3]
  cytokine secretion of T cell line upon stimulation: secreted the Thl-type cytokines, namely, IL-2, IFNγ and TNFα
